Measured values taken from publication PMC4751435 (2016).

B1: luciferase-FOXP2 (wild-type, full-length 1-715) [human] / YFP-PIAS4 [human] (parent complex)
chain 1: MMQESATETISNSSMNQNGMSTLSSQLDAGSRDGRSSGDTSSEVSTVELLHLQQQQALQAARQLLLQQQTSGLKSPKSSDKQRPLQVPVSVAMMTPQVITPQQMQQILQQQVLSPQQLQALLQQQQAVMLQQQQLQEFYKKQQEQLHLQLLQQQQQQQQQQQQQQQQQQQQQQQQQQQQQQQQQQQQQQQQHPGKQAKEQQQQQQQQQQLAAQQLVFQQQLLQMQQLQQQQHLLSLQRQGLISIPPGQAALPVQSLPQAGLSPAEIQQLWKEVTGVHSMEDNGIKHGGLDLTTNNSSSTTSSNTSKASPPITHHSIVNGQSSVLSARRDSSSHEETGASHTLYGHGVCKWPGCESICEDFGQFLKHLNNEHALDDRSTAQCRVQMQVVQQLEIQLSKERERLQAMMTHLHMRPSEPKPSPKPLNLVSSVTMSKNMLETSPQSLPQTPTTPTAPVTPITQGPSVITPASVPNVGAIRRRHSDKYNIPMSSEIAPNYEFYKNADVRPPFTYATLIRQAIMESSDRQLTLNEIYSWFTRTFAYFRRNAATWKNAVRHNLSLHKCFVRVENVKGAVWTVDEVEYQKRRSQKITGSPTLVKNIPTSLGYGAALNASLQAALAESSLPLLSNPGLINNASSGLLQAVHEDLNGSLDHIDSNGNSSPGCSPQPHIHSIHVKEEPVIAEDEDCPMSLVTTANHSPELEDDREIEEEPLSEDLE
chain 2: MAAELVEAKNMVMSFRVSDLQMLLGFVGRSKSGLKHELVTRALQLVQFDCSPELFKKIKELYETRYAKKNSEPAPQPHRPLDPLTMHSTYDRAGAVPRTPLAGPNIDYPVLYGKYLNGLGRLPAKTLKPEVRLVKLPFFNMLDELLKPTELVPQNNEKLQESPCIFALTPRQVELIRNSRELQPGVKAVQVVLRICYSDTSCPQEDQYPPNIAVKVNHSYCSVPGYYPSNKPGVEPKRPCRPINLTHLMYLSSATNRITVTWGNYGKSYSVALYLVRQLTSSELLQRLKTIGVKHPELCKALVKEKLRLDPDSEIATTGVRVSLICPLVKMRLSVPCRAETCAHLQCFDAVFYLQMNEKKPTWMCPVCDKPAPYDQLIIDGLLSKILSECEDADEIEYLVDGSWCPIRAEKERSCSPQGAILVLGPSDANGLLPAPSVNGSGALGSTGGGGPVGSMENGKPGADVVDLTLDSSSSSEDEEEEEEEEEDEDEEGPRPKRRCPFQKGLVPAC
B2: luciferase-FOXP2 (wild-type, full-length 1-715) [human] / YFP-PIAS2 [human] (parent complex)
chain 1: B1 chain 1
chain 2: MADFEELRNMVSSFRVSELQVLLGFAGRNKSGRKHDLLMRALHLLKSGCSPAVQIKIRELYRRRYPRTLEGLSDLSTIKSSVFSLDGGSSPVEPDLAVAGIHSLPSTSVTPHSPSSPVGSVLLQDTKPTFEMQQPSPPIPPVHPDVQLKNLPFYDVLDVLIKPTSLVQSSIQRFQEKFFIFALTPQQVREICISRDFLPGGRRDYTVQVQLRLCLAETSCPQEDNYPNSLCIKVNGKLFPLPGYAPPPKNGIEQKRPGRPLNITSLVRLSSAVPNQISISWASEIGKNYSMSVYLVRQLTSAMLLQRLKMKGIRNPDHSRALIKEKLTADPDSEIATTSLRVSLMCPLGKMRLTIPCRAVTCTHLQCFDAALYLQMNEKKPTWICPVCDKKAAYESLILDGLFMEILNDCSDVDEIKFQEDGSWCPMRPKKEAMKVSSQPCTKIESSSVLSKPCSVTVASEASKKKVDVIDLTIESSSDEEEDPPAKRKCIFMSETQSSPTKGVLMYQPSSVRVPSVTSVDPAAIPPSLTDYSVPFHHTPISSMSSDLPGLDFLSLIPVDPQYCPPMFLDSLTSPLTASSTSVTTTSSHESSTHVSSSSSRSETGVITSSGSNIPDIISLD
B3: luciferase-FOXP2 (wild-type, full-length 1-715) [human] / YFP-PIAS1 (wild-type) [human] (parent complex)
chain 1: B1 chain 1
chain 2: MADSAELKQMVMSLRVSELQVLLGYAGRNKHGRKHELLTKALHLLKAGCSPAVQMKIKELYRRRFPQKIMTPADLSIPNVHSSPMPATLSPSTIPQLTYDGHPASSPLLPVSLLGPKHELELPHLTSALHPVHPDIKLQKLPFYDLLDELIKPTSLASDNSQRFRETCFAFALTPQQVQQISSSMDISGTKCDFTVQVQLRFCLSETSCPQEDHFPPNLCVKVNTKPCSLPGYLPPTKNGVEPKRPSRPINITSLVRLSTTVPNTIVVSWTAEIGRNYSMAVYLVKQLSSTVLLQRLRAKGIRNPDHSRALIKEKLTADPDSEIATTSLRVSLLCPLGKMRLTIPCRALTCSHLQCFDATLYIQMNEKKPTWVCPVCDKKAPYEHLIIDGLFMEILKYCTDCDEIQFKEDGTWAPMRSKKEVQEVSASYNGVDGCLSSTLEHQVASHHQSSNKNKKVEVIDLTIDSSSDEEEEEPSAKRTCPSLSPTSPLNNKGILSLPHQASPVSRTPSLPAVDTSYINTSLIQDYRHPFHMTPMPYDLQGLDFFPFLSGDNQHYNTSLLAAAAAAVSDDQDLLHSSRFFPYTSSQMFLDQLSAGGSTSLPTTNGSSSGSNSSLVSSNSLRESHSHTVTNRSSTDTASIFGIIPDIISLD
B4: luciferase-FOXP2 (wild-type, full-length 1-715) [human] / YFP-PIAS3 [human] (parent complex)
chain 1: B1 chain 1
chain 2: MAELGELKHMVMSFRVSELQVLLGFAGRNKSGRKHELLAKALHLLKSSCAPSVQMKIKELYRRRFPRKTLGPSDLSLLSLPPGTSPVGSPGPLAPIPPTLLAPGTLLGPKREVDMHPPLPQPVHPDVTMKPLPFYEVYGELIRPTTLASTSSQRFEEAHFTFALTPQQVQQILTSREVLPGAKCDYTIQVQLRFCLCETSCPQEDYFPPNLFVKVNGKLCPLPGYLPPTKNGAEPKRPSRPINITPLARLSATVPNTIVVNWSSEFGRNYSLSVYLVRQLTAGTLLQKLRAKGIRNPDHSRALIKEKLTADPDSEVATTSLRVSLMCPLGKMRLTVPCRALTCAHLQSFDAALYLQMNEKKPTWTCPVCDKKAPYESLIIDGLFMEILSSCSDCDEIQFMEDGSWCPMKPKKEASEVCPPPGYGLDGLQYSPVQGGDPSENKKKVEVIDLTIESSSDEEDLPPTKKHCSVTSAAIPALPGSKGVLTSGHQPSSVLRSPAMGTLGGDFLSSLPLHEYPPAFPLGADIQGLDLFSFLQTESQHYGPSVITSLDEQDALGHFFQYRGTPSHFLGPLAPTLGSSHCSATPAPPPGRVSSIVAPGGALREGHGGPLPSGPSLTGCRSDIISLD

Variants of: B1
Assay: BRET; control donor est. 0.026; read off a plot

| Variant | response [BRET ratio] |
| --- | --- |
| chain 1 K674R | ~0.071 |

Variants of: B1
Assay: BRET; HEK293 cells; n = 3; control donor (nuclear-targeted luciferase) est. 0.001; read off a plot

| Variant | response [BRET ratio] |
| --- | --- |
| chain 1 R553H | ~-0.006 |

Variants of: B2
Assay: BRET; HEK293 cells; n = 3; control donor (nuclear-targeted luciferase) est. -0.008; read off a plot

| Variant | response [BRET ratio] |
| --- | --- |
| chain 1 R553H | ~-0.005 |

Variants of: B2
Assay: BRET; control donor est. 0.030; read off a plot

| Variant | response [BRET ratio] |
| --- | --- |
| chain 1 K674R | ~0.047 |

Variants of: B3
Assay: BRET; control donor est. 0.036; read off a plot

| Variant | response [BRET ratio] |
| --- | --- |
| chain 1 K674R | ~0.11 |

Variants of: B3
Assay: BRET; HEK293 cells; n = 3; control donor (nuclear-targeted luciferase) est. 0.000; read off a plot

| Variant | response [BRET ratio] |
| --- | --- |
| chain 1 R553H | ~0.014 |

Variants of: B4
Assay: BRET; HEK293 cells; n = 3; control donor (nuclear-targeted luciferase) est. -0.003; read off a plot

| Variant | response [BRET ratio] |
| --- | --- |
| chain 1 R553H | ~0.026 |

Variants of: B4
Assay: BRET; control donor est. 0.040; read off a plot

| Variant | response [BRET ratio] |
| --- | --- |
| chain 1 K674R | ~0.087 |
